According to patent US9637764B2, “Methods of producing 7-carbon chemicals via carbon chain elongation associated with cyclohexane carboxylate synthesis” (INVISTA North America S.á r.l., priority 2012, dated 2017):

Experiments:
Format in all cases: biochemical
[1] = ω-transaminase activity assay, reverse direction (7-aminoheptanoate to pimelate semialdehyde), L-alanine formation by RP-HPLC; conditions: cell free extract, 10 mM 7-aminoheptanoate, 10 mM pyruvate, pH=7.5, 25° C., 4 h; against the empty vector control; FIG. 15
Procedure: (§1) A sequence encoding an N-terminal His-tag was added to the genes from Chromobacterium violaceum, Pseudomonas syringae, Rhodobacter sphaeroides, and Vibrio Fluvialis encoding the ω-transaminases of SEQ ID NOs: 8, 10, 11 and 13, respectively (see FIGS. 7F and 7G) such that N-terminal HIS tagged ω-transaminases could be produced. Each of the resulting modified genes was cloned into a pET21a expression vector under control of the T7 promoter and each expression vector was transformed into a BL21[DE3] E. coli host. The resulting recombinant E. coli strains were cultivated at 37° C. in a 250 mL shake flask culture containing 50 mL LB media and antibiotic selection pressure, with shaking at 230 rpm. Each culture was induced overnight at 16° C. using 1 mM IPTG.
(§2) The pellet from each induced shake flask culture was harvested via centrifugation. Each pellet was resuspended and lysed via sonication. The cell debris was separated from the supernatant via centrifugation and the cell free extract was used immediately in enzyme activity assays.
Enzyme activity assays in the reverse direction (i.e., 7-aminoheptanoate to pimelate semialdehyde) were performed in a buffer composed of a final concentration of 50 mM HEPES buffer (pH=7.5), 10 mM 7-aminoheptanoate, 10 mM pyruvate and 100 μM pyridoxyl 5′ phosphate. Each enzyme activity assay reaction was initiated by adding cell free extract of the ω-transaminase gene product or the empty vector control to the assay buffer containing the 7-aminoheptanoate and incubated at 25° C. for 4 h, with shaking at 250 rpm. The formation of L-alanine from pyruvate was quantified via RP-HPLC.

[2] = ω-transaminase activity assay, forward direction (pimelate semialdehyde to 7-aminoheptanoate), pyruvate formation by RP-HPLC; conditions: for ω-transaminase activity for converting pimelate semialdehyde to 7-aminoheptanoate: cell free extract, 10 mM pimelate semialdehyde, 10 mM L-alanine, pH=7.5, 25° C., 4 h, against the empty vector control, FIG. 16; for ω-transaminase accepts pimelate semialdehyde and synthesizes 7-aminoheptanoate, concluded from the reversibility of the activity: conclusion from confirmed reversibility
Procedure: as §1, §2
Enzyme activity in the forward direction (i.e., pimelate semialdehyde to 7-aminoheptanoate) was confirmed for the transaminases of SEQ ID NO 10, SEQ ID NO 11 and SEQ ID NO 13. Enzyme activity assays were performed in a buffer composed of a final concentration of 50 mM HEPES buffer (pH=7.5), 10 mM pimelate semialdehyde, 10 mM L-alanine and 100 μM pyridoxyl 5′ phosphate. Each enzyme activity assay reaction was initiated by adding a cell free extract of the ω-transaminase gene product or the empty vector control to the assay buffer containing the pimelate semialdehyde and incubated at 25° C. for 4 h, with shaking at 250 rpm. The formation of pyruvate was quantified via RP-HPLC.

[3] = ω-transaminase activity assay, 7-aminoheptanol to 7-oxoheptanol, L-alanine formation by RP-HPLC; conditions: for ω-transaminase activity for converting 7-aminoheptanol to 7-oxoheptanol: cell free extract, 10 mM 7-aminoheptanol, 10 mM pyruvate, pH=7.5, 25° C., 4 h, against the empty vector control, FIG. 19; for ω-transaminase accepts 7-oxoheptanol and forms 7-aminoheptanol, concluded from reversibility: conclusion given the reversibility of the ω-transaminase activity (Example 2)
Procedure: A nucleotide sequence encoding an N-terminal His-tag was added to the Chromobacterium violaceum, Pseudomonas syringae and Rhodobacter sphaeroides genes encoding the ω-transaminases of SEQ ID NOs: 8, 10 and 11, respectively (see FIGS. 7F and 7G) such that N-terminal HIS tagged ω-transaminases could be produced. The modified genes were cloned into a pET21a expression vector under the T7 promoter. Each expression vector was transformed into a BL21[DE3] E. coli host. Each resulting recombinant E. coli strain were cultivated at 37° C. in a 250 mL shake flask culture containing 50 mL LB media and antibiotic selection pressure, with shaking at 230 rpm. Each culture was induced overnight at 16° C. using 1 mM IPTG.
as §2
Enzyme activity assays in the reverse direction (i.e., 7-aminoheptanol to 7-oxoheptanol) were performed in a buffer composed of a final concentration of 50 mM HEPES buffer (pH=7.5), 10 mM 7-aminoheptanol, 10 mM pyruvate, and 100 μM pyridoxyl 5′ phosphate. Each enzyme activity assay reaction was initiated by adding cell free extract of the ω-transaminase gene product or the empty vector control to the assay buffer containing the 7-aminoheptanol and then incubated at 25° C. for 4 h, with shaking at 250 rpm. The formation of L-alanine was quantified via RP-HPLC.

[4] = Carboxylate reductase activity assay, N7-acetyl-7-aminoheptanoate to N7-acetyl-7-aminoheptanal (NADPH consumption, absorbance at 340 nm); conditions: purified enzyme enhanced by the gene product of sfp, 2 mM N7-acetyl-7-aminoheptanoate, 1 mM ATP, 1 mM NADPH, pH=7.5, room temperature, 20 min; against the empty vector control; FIG. 12
Procedure: The activity of each of the N-terminal His-tagged carboxylate reductases of SEQ ID NOs: 3, 6, and 7 (see Examples 4, and FIGS. 7B, 7E, and 7F) for converting N7-acetyl-7-aminoheptanoate to N7-acetyl-7-aminoheptanal was assayed in triplicate in a buffer composed of a final concentration of 50 mM HEPES buffer (pH=7.5), 2 mM N7-acetyl-7-aminoheptanoate, 10 mM MgCl2, 1 mM ATP, and 1 mM NADPH. The assays were initiated by adding purified carboxylate reductase and phosphopantetheine transferase or the empty vector control to the assay buffer containing the N7-acetyl-7-aminoheptanoate then incubated at room temperature for 20 min. The consumption of NADPH was monitored by absorbance at 340 nm.

## SEQ ID NO 11: Rhodobacter sphaeroides ω-transaminase, Genbank Accession No. ABA81135.1
[1]
  ω-transaminase activity for converting 7-aminoheptanoate to pimelate semialdehyde: accepted 7-aminoheptanote as substrate
[2]
  ω-transaminase activity for converting pimelate semialdehyde to 7-aminoheptanoate: accepted pimelate semialdehyde as substrate
  ω-transaminase accepts pimelate semialdehyde and synthesizes 7-aminoheptanoate, concluded from the reversibility of the activity: accepted pimelate semialdehyde as substrate and synthesized 7-aminoheptanoate
[3]
  ω-transaminase activity for converting 7-aminoheptanol to 7-oxoheptanol: accepted 7-aminoheptanol as substrate
  ω-transaminase accepts 7-oxoheptanol and forms 7-aminoheptanol, concluded from reversibility: accept 7-oxoheptanol as substrate

B1: SEQ ID NO 3: Mycobacterium smegmatis carboxylate reductase, Genbank Accession No. ABK71854.1 (protein, listed as Mycobacterium smegmatis)
chain: MTSDVHDATDGVTETALDDEQSTRRIAELYATDPEFAAAAPLPAVVDAAHKPGLRLAEILQTLFTGYGDRPALGYRARELATDEGGRTVTRLLPRFDTLTYAQVWSRVQAVAAALRHNFAQPIYPGDAVATIGFASPDYLTLDLVCAYLGLVSVPLQHNAPVSRLAPILAEVEPRILTVSAEYLDLAVESVRDVNSVSQLVVFDHHPEVDDHRDALARAREQLAGKGIAVTTLDAIADEGAGLPAEPIYTADHDQRLAMILYTSGSTGAPKGAMYTEAMVARLWTMSFITGDPTPVINVNFMPLNHLGGRIPISTAVQNGGTSYFVPESDMSTLFEDLALVRPTELGLVPRVADMLYQHHLATVDRLVTQGADELTAEKQAGAELREQVLGGRVITGFVSTAPLAAEMRAFLDITLGAHIVDGYGLTETGAVTRDGVIVRPPVIDYKLIDVPELGYFSTDKPYPRGELLVRSQTLTPGYYKRPEVTASVFDRDGYYHTGDVMAETAPDHLVYVDRRNNVLKLAQGEFVAVANLEAVFSGAALVRQIFVYGNSERSFLLAVVVPTPEALEQYDPAALKAALADSLQRTARDAELQSYEVPADFIVETEPFSAANGLLSGVGKLLRPNLKDRYGQRLEQMYADIAATQANQLRELRRAAATQPVIDTLTQAAATILGTGSEVASDAHFTDLGGDSLSALTLSNLLSDFFGFEVPVGTIVNPATNLAQLAQHIEAQRTAGDRRPSFTTVHGADATEIRASELTLDKFIDAETLRAAPGLPKVTTEPRTVLLSGANGWLGRFLTLQWLERLAPVGGTLITIVRGRDDAAARARLTQAYDTDPELSRRFAELADRHLRVVAGDIGDPNLGLTPEIWHRLAAEVDLVVHPAALVNHVLPYRQLFGPNVVGTAEVIKLALTERIKPVTYLSTVSVAMGIPDFEEDGDIRTVSPVRPLDGGYANGYGNSKWAGEVLLREAHDLCGLPVATFRSDMILAHPRYRGQVNVPDMFTRLLLSLLITGVAPRSFYIGDGERPRAHYPGLTVDFVAEAVTTLGAQQREGYVSYDVMNPHDDGISLDVFVDWLIRAGHPIDRVDDYDDWVRRFETALTALPEKRRAQTVLPLLHAFRAPQAPLRGAPEPTEVFHAAVRTAKVGPGDIPHLDEALIDKYIRDLREFGLI
[4]
  carboxylate reductase activity for converting N7-acetyl-7-aminoheptanoate to N7-acetyl-7-aminoheptanal: accepted N7-acetyl-7-aminoheptanoate as substrate

B2: SEQ ID NO 13: Vibrio fluvialis ω-transaminase, Genbank Accession No. AEA39183.1 (protein, listed as Vibrio fluvialis)
chain: MNKPQSWEARAETYSLYGFTDMPSLHQRGTVVVTHGEGPYIVDVNGRRYLDANSGLWNMVAGFDHKGLIDAAKAQYERFPGYHAFFGRMSDQTVMLSEKLVEVSPFDSGRVFYTNSGSEANDTMVKMLWFLHAAEGKPQKRKILTRWNAYHGVTAVSASMTGKPYNSVFGLPLPGFVHLTCPHYWRYGEEGETEEQFVARLARELEETIQREGADTIAGFFAEPVMGAGGVIPPAKGYFQAILPILRKYDIPVISDEVICGFGRTGNTWGCVTYDFTPDAIISSKNLTAGFFPMGAVILGPELSKRLETAIEAIEEFPHGFTASGHPVGCAIALKAIDVVMNEGLAENVRRLAPRFEERLKHIAERPNIGEYRGIGFMWALEAVKDKASKTPFDGNLSVSERIANTCTDLGLICRPLGQSVVLCPPFILTEAQMDEMFDKLEKALDKVFAEVA
[1]
  ω-transaminase activity for converting 7-aminoheptanoate to pimelate semialdehyde: accepted 7-aminoheptanote as substrate
[2]
  ω-transaminase activity for converting pimelate semialdehyde to 7-aminoheptanoate: accepted pimelate semialdehyde as substrate
  ω-transaminase accepts pimelate semialdehyde and synthesizes 7-aminoheptanoate, concluded from the reversibility of the activity: accepted pimelate semialdehyde as substrate and synthesized 7-aminoheptanoate

B3: SEQ ID NO 8: Chromobacterium violaceum ω-transaminase, Genbank Accession No. AAQ59697.1 (protein, listed as Chromobacterium violaceum)
chain: MQKQRTTSQWRELDAAHHLHPFTDTASLNQAGARVMTRGEGVYLWDSEGNKIIDGMAGLWCVNVGYGRKDFAEAARRQMEELPFYNTFFKTTHPAVVELSSLLAEVTPAGFDRVFYTNSGSESVDTMIRMVRRYWDVQGKPEKKTLIGRWNGYHGSTIGGASLGGMKYMHEQGDLPIPGMAHIEQPWWYKHGKDMTPDEFGVVAARWLEEKILEIGADKVAAFVGEPIQGAGGVIVPPATYWPEIERICRKYDVLLVADEVICGFGRTGEWFGHQHFGFQPDLFTAAKGLSSGYLPIGAVFVGKRVAEGLIAGGDFNHGFTYSGHPVCAAVAHANVAALRDEGIVQRVKDDIGPYMQKRWRETFSRFEHVDDVRGVGMVQAFTLVKNKAKRELFPDFGEIGTLCRDIFFRNNLIMRACGDHIVSAPPLVMTRAEVDEMLAVAERCLEEFEQTLKARGLA
[1]
  ω-transaminase activity for converting 7-aminoheptanoate to pimelate semialdehyde: accepted 7-aminoheptanote as substrate
[2]
  ω-transaminase accepts pimelate semialdehyde and synthesizes 7-aminoheptanoate, concluded from the reversibility of the activity: accepted pimelate semialdehyde as substrate and synthesized 7-aminoheptanoate
[3]
  ω-transaminase activity for converting 7-aminoheptanol to 7-oxoheptanol: accepted 7-aminoheptanol as substrate
  ω-transaminase accepts 7-oxoheptanol and forms 7-aminoheptanol, concluded from reversibility: accept 7-oxoheptanol as substrate

B4: SEQ ID NO 10: Pseudomonas syringae ω-transaminase, Genbank Accession No. AAY39893.1 (protein, listed as Pseudomonas syringae)
chain: MSANNPQTLEWQALSSEHHLAPFSDYKQLKEKGPRIITRAEGVYLWDSEGNKILDGMSGLWCVAIGYGREELADAASKQMRELPYYNLFFQTAHPPVLELAKAISDIAPEGMNHVFFTGSGSEGNDTMLRMVRHYWALKGQPNKKTIISRVNGYHGSTVAGASLGGMTYMHEQGDLPIPGVVHIPQPYWFGEGGDMTPDEFGIWAAEQLEKKILELGVENVGAFIAEPIQGAGGVIVPPDSYWPKIKEILSRYDILFAADEVICGFGRTSEWFGSDFYGLRPDMMTIAKGLTSGYVPMGGLIVRDEIVAVLNEGGDFNHGFTYSGHPVAAAVALENIRILREEKIVERVRSETAPYLQKRLRELSDHPLVGEVRGVGLLGAIELVKDKTTRERYTDKGAGMICRTFCFDNGLIMRAVGDTMIIAPPLVISFAQIDELVEKARTCLDLTLAVLQG
[1]
  ω-transaminase activity for converting 7-aminoheptanoate to pimelate semialdehyde: accepted 7-aminoheptanote as substrate
[2]
  ω-transaminase activity for converting pimelate semialdehyde to 7-aminoheptanoate: accepted pimelate semialdehyde as substrate
  ω-transaminase accepts pimelate semialdehyde and synthesizes 7-aminoheptanoate, concluded from the reversibility of the activity: accepted pimelate semialdehyde as substrate and synthesized 7-aminoheptanoate
[3]
  ω-transaminase activity for converting 7-aminoheptanol to 7-oxoheptanol: accepted 7-aminoheptanol as substrate
  ω-transaminase accepts 7-oxoheptanol and forms 7-aminoheptanol, concluded from reversibility: accept 7-oxoheptanol as substrate
